Assay results from the supplement of paper PMC7877785.
± gives the uncertainty stated by the source.

Assay: self-splicing fitness, log relative to wild type (ln ratio); higher = more splicing; Tetrahymena group I intron in knt gene, E. coli kanamycin selection, DiMSum; sequences stand for … in CUCUCU…GGAGGGAAAAGUUAUCAGGCAUGCACCUGGUAGCUAGUCUUUAAACCAAUAGAUUGCAUCGGUUUAAAAGGCAAGACCGUCAAAUUGCGGGAAAGGGGUCAACAGCCGUUCAGUACCAAGUCUCAGGGGAAACUUUGAGAUGGCCUUGCAAAGGGUAUGGUAAUAAGCUGACGGACAUGGUCCUAACCACGCAGCCAAGUCCUAAGUCAACAGAUCUUCUGUUGAUAUGGAUGCAGUUCACAGACUAAAUGUCGGUCGGGGAAGAUGUAUUCUUCUCAUAAGAUAUAGUCGGACCUCUCCUUAAUGGGAGCUAGCGGAUGAAGUGAUGCAACACUGGAGCCGCUGGGAACUAAUUUGUAUGCGAAAGUAUAUUGAUUAGUUUUGGAGUACUCGUGGUCG
How it was run: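 A randomised library covering all eight P1ex-region intron nucleotides was built with the intron in the knt kanamycin-resistance gene on pET-22b(+) and held in E. coli BL21(DE3). Cells were grown overnight at 37°C or 30°C on LB agar, with or without 25 μg/mL kanamycin, plus 100 μg/mL carbenicillin, 50 μM IPTG and 0.2% rhamnose, and pooled colonies were amplicon-sequenced on an Illumina HiSeq 2500. DiMSum fitness is the error-weighted combination of wild-type-normalised replicate fold changes, kanamycin versus none.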

Row | Sequence | self-splicing fitness (ln) (37 °C) | self-splicing fitness (ln) (30 °C)
1 | CGUAAGCAAUAUUACGCAAA | -1.48 ± 0.34 | –
2 | AUGGAGCAAUAUUACGGAAU | -2.02 ± 0.47 | -2.66 ± 0.32
3 | GCUUAGCAAUAUUACGCUAG | -2.19 ± 0.14 | -2.81 ± 0.12
4 | GCUAAGCAAUAUUACGCUAA | -2.3 ± 0.21 | -3.29 ± 0.34
5 | AGUUAGCAAUAUUACGUCGA | -1.02 ± 0.13 | -1.37 ± 0.12
6 | UCAUAGCAAUAUUACGCAAA | -1.72 ± 0.3 | -2.54 ± 0.25
7 | UUAAAGCAAUAUUACGCGCG | 0.00297 ± 0.16 | -0.058 ± 0.12
8 | CGAAAGCAAUAUUACGGCGU | 0.313 ± 0.11 | -0.379 ± 0.074
9 | CAAUAGCAAUAUUACGCCGA | -1.59 ± 0.17 | -2.61 ± 0.26
10 | UCAGAGCAAUAUUACGCCAU | -1.91 ± 0.29 | –
11 | CUGAAGCAAUAUUACGGUUU | -2.72 ± 0.18 | -3.24 ± 0.22
12 | AAGGAGCAAUAUUACGUCUC | – | -2.84 ± 0.48
13 | UCGAAGCAAUAUUACGUCCU | -0.253 ± 0.15 | -0.664 ± 0.12
14 | UGCAAGCAAUAUUACGUGUA | -1.35 ± 0.084 | -1.96 ± 0.073
15 | ACUAAGCAAUAUUACGUUGA | -1.92 ± 0.13 | -2.67 ± 0.12
16 | ACGUAGCAAUAUUACGGCUU | 0.194 ± 0.11 | 0.0669 ± 0.089
17 | GGAAAGCAAUAUUACGUCAU | -1.38 ± 0.18 | -2.34 ± 0.18
18 | AAAGAGCAAUAUUACGGGGA | -1.81 ± 0.28 | -2.48 ± 0.35
19 | AACUAGCAAUAUUACGGUAG | 0.0456 ± 0.12 | -2.06 ± 0.11
20 | AGUUAGCAAUAUUACGCGAA | -1.1 ± 0.13 | -2.29 ± 0.15
21 | CAGUAGCAAUAUUACGUCUA | -0.256 ± 0.071 | -0.56 ± 0.064
22 | CUGAAGCAAUAUUACGUAUG | -0.154 ± 0.068 | -0.151 ± 0.056
23 | UGAUAGCAAUAUUACGAUUG | -0.301 ± 0.15 | -0.719 ± 0.12
24 | AGUAAGCAAUAUUACGACAU | -0.078 ± 0.033 | -0.346 ± 0.013
25 | CACUAGCAAUAUUACGGGGA | -1.63 ± 0.17 | -2.57 ± 0.19

Row | Sequence | self-splicing fitness (ln) (37 °C) | self-splicing fitness (ln) (30 °C)
26 | GCUGAGCAAUAUUACGUCAG | -2.15 ± 0.26 | -3.35 ± 0.24
27 | CCUGAGCAAUAUUACGGUGC | -2.15 ± 0.43 | -2.51 ± 0.25
28 | CAUGAGCAAUAUUACGAUUU | -2.15 ± 0.2 | -2.51 ± 0.15
29 | ACUGAGCAAUAUUACGUCCU | -0.865 ± 0.12 | -2.07 ± 0.11
30 | GGCUAGCAAUAUUACGACUU | -0.0421 ± 0.11 | -0.0915 ± 0.084
31 | AAACAGCAAUAUUACGCAGU | -1.44 ± 0.12 | -3.42 ± 0.15
32 | AUUAAGCAAUAUUACGAACA | -0.718 ± 0.17 | -1.43 ± 0.14
33 | GAACAGCAAUAUUACGUGAA | -0.396 ± 0.069 | -0.968 ± 0.061
34 | UCGUAGCAAUAUUACGAAUA | -2.55 ± 0.27 | –
35 | GGCUAGCAAUAUUACGAGCU | -1.65 ± 0.31 | -2.9 ± 0.47
36 | UUGGAGCAAUAUUACGGGCU | -2.95 ± 0.34 | –
37 | UACCAGCAAUAUUACGAAAG | -1.28 ± 0.15 | -1.95 ± 0.15
38 | GUAGAGCAAUAUUACGGUAG | -1.24 ± 0.13 | -2.36 ± 0.12
39 | GAAGAGCAAUAUUACGUGCG | -2.03 ± 0.17 | -2.87 ± 0.15
40 | CUACAGCAAUAUUACGCUAU | -2.6 ± 0.18 | -4.01 ± 0.19
41 | AGACAGCAAUAUUACGCUAA | -0.0364 ± 0.1 | -2.17 ± 0.11
42 | GGCGAGCAAUAUUACGUGCU | – | -3.19 ± 0.34
43 | CAGCAGCAAUAUUACGAAAC | – | -3.65 ± 0.23
44 | CUAAAGCAAUAUUACGUGAA | -3.36 ± 0.32 | -3.29 ± 0.23
45 | CUACAGCAAUAUUACGGACG | 0.601 ± 0.1 | -0.196 ± 0.072
46 | GCGAAGCAAUAUUACGCAAU | -2.07 ± 0.19 | -3.2 ± 0.2
47 | AGCAAGCAAUAUUACGAACU | -0.593 ± 0.14 | -0.731 ± 0.12
48 | CACUAGCAAUAUUACGUGAU | -3.21 ± 0.15 | -3.32 ± 0.12
49 | UAGGAGCAAUAUUACGGAGG | -2.73 ± 0.32 | -4.35 ± 0.42
50 | CUUUAGCAAUAUUACGCUAU | -1.68 ± 0.23 | -3.66 ± 0.31

Row | Sequence | self-splicing fitness (ln) (37 °C) | self-splicing fitness (ln) (30 °C)
51 | AGUAAGCAAUAUUACGAUGG | -1.56 ± 0.26 | -3.99 ± 0.23
52 | CUGAAGCAAUAUUACGAGAA | – | -3.29 ± 0.3
53 | UUCAAGCAAUAUUACGUUGG | -1.66 ± 0.24 | -2.28 ± 0.17
54 | UAACAGCAAUAUUACGGUCG | -0.0859 ± 0.056 | -0.363 ± 0.04
55 | GUGCAGCAAUAUUACGUAGU | -0.784 ± 0.12 | -1.37 ± 0.083
56 | ACAUAGCAAUAUUACGAACU | 0.274 ± 0.12 | -0.612 ± 0.1
57 | UUUCAGCAAUAUUACGUCAU | -2.47 ± 0.35 | -3.32 ± 0.24
58 | GUACAGCAAUAUUACGGCGU | 0.482 ± 0.085 | -0.577 ± 0.069
59 | ACGAAGCAAUAUUACGGUUU | -1.89 ± 0.12 | -3.17 ± 0.13
60 | CACAAGCAAUAUUACGGCAC | -1.56 ± 0.17 | -2.95 ± 0.19
61 | GGGGAGCAAUAUUACGUAUC | -2.19 ± 0.37 | -2.03 ± 0.2
62 | GCCUAGCAAUAUUACGUCCA | -1.38 ± 0.18 | -2.37 ± 0.18
63 | GCGCAGCAAUAUUACGCUAG | -2.15 ± 0.33 | -3.26 ± 0.28
64 | CAUCAGCAAUAUUACGAUGA | -0.687 ± 0.15 | -2.62 ± 0.24
65 | AGGAAGCAAUAUUACGGUUC | -2.24 ± 0.2 | -2.78 ± 0.21
66 | GCCCAGCAAUAUUACGUUCC | -0.603 ± 0.14 | -1.28 ± 0.096
67 | UCCAAGCAAUAUUACGAAAG | -3.23 ± 0.35 | -2.45 ± 0.19
68 | CAUAAGCAAUAUUACGAGCG | 0.0464 ± 0.088 | 0.0605 ± 0.064
69 | UAUAAGCAAUAUUACGAUAG | -0.486 ± 0.17 | -1.4 ± 0.16
70 | CGACAGCAAUAUUACGGGAU | -2.52 ± 0.19 | -3.98 ± 0.18
71 | CCGCAGCAAUAUUACGUCUC | -2.56 ± 0.26 | -3.13 ± 0.24
72 | ACCGAGCAAUAUUACGGUUU | -2.35 ± 0.18 | -3.42 ± 0.14
73 | AUUUAGCAAUAUUACGGAAC | -2.02 ± 0.31 | -3.03 ± 0.3
74 | UAUGAGCAAUAUUACGGCGU | -2.38 ± 0.29 | -3.11 ± 0.21
75 | GAGUAGCAAUAUUACGUCAC | – | -3.28 ± 0.24

Row | Sequence | self-splicing fitness (ln) (37 °C) | self-splicing fitness (ln) (30 °C)
76 | GAGGAGCAAUAUUACGCGUG | -0.66 ± 0.23 | -1.55 ± 0.19
77 | GCAUAGCAAUAUUACGUCAU | -1.89 ± 0.098 | -3.5 ± 0.16
78 | GCGUAGCAAUAUUACGAUUA | 0.608 ± 0.085 | -0.494 ± 0.082
79 | ACAGAGCAAUAUUACGUCCA | -2.25 ± 0.26 | -2.34 ± 0.2
80 | UCCGAGCAAUAUUACGAAUA | – | -2.95 ± 0.25
81 | GUCUAGCAAUAUUACGCGAU | -2.29 ± 0.23 | -1.94 ± 0.21
82 | CUUUAGCAAUAUUACGUUAC | -1.74 ± 0.29 | -3.92 ± 0.34
83 | GCUAAGCAAUAUUACGAGAG | -1.27 ± 0.14 | -2.38 ± 0.12
84 | UUGCAGCAAUAUUACGUGGG | -2.8 ± 0.17 | -3.24 ± 0.12
85 | CAUGAGCAAUAUUACGAGAG | -3.27 ± 0.23 | -3.22 ± 0.16
86 | AUGCAGCAAUAUUACGCCGU | -0.859 ± 0.083 | -1.25 ± 0.069
87 | CACAAGCAAUAUUACGCUCA | -0.209 ± 0.097 | -1.45 ± 0.093
88 | CCAUAGCAAUAUUACGAAGU | -2.64 ± 0.22 | -3.61 ± 0.21
89 | UCUAAGCAAUAUUACGGUUG | -2.61 ± 0.18 | -2.82 ± 0.15
90 | CACGAGCAAUAUUACGAACC | -1.7 ± 0.32 | –
91 | GCUCAGCAAUAUUACGCAGG | -1.29 ± 0.098 | -1.52 ± 0.084
92 | GCACAGCAAUAUUACGAAUA | -1.09 ± 0.16 | -1.42 ± 0.13
93 | ACUUAGCAAUAUUACGAUGU | -1.36 ± 0.11 | -1.78 ± 0.08
94 | ACCAAGCAAUAUUACGUACC | -1.32 ± 0.17 | -1.57 ± 0.17
95 | UAGCAGCAAUAUUACGUGGG | -2.42 ± 0.13 | -3.61 ± 0.11
96 | CUGGAGCAAUAUUACGAAUA | -2.15 ± 0.47 | -3.07 ± 0.4
97 | GCUAAGCAAUAUUACGGCUG | -2.03 ± 0.18 | -2.83 ± 0.15
98 | CAUUAGCAAUAUUACGAUAG | -0.688 ± 0.11 | -0.405 ± 0.094
